Biological target: His6-CCCP-1 (C. elegans CCCP-1, full length) (C. elegans)
Test: SEC-MALS

stoichiometry N: 2
Substance: His6-CCCP-1 (C. elegans CCCP-1, full length) (natural protein)

Reference: article PMC5650531
